# Assay: soluble on expression in E. coli; label from the status in PepcDB or PDB records
row,Sequence,soluble on expression in E. coli
1,MSLEAKQTKKSLPLRSEIPVEETWRLEDIFPTDEAWEQEFQEVKKMIPKLAEYQGRLGESADVLYEALQYQDEVSMRLGKLYTYAHMRYDQDTTNAFYQGLNDRATSLYSEASSAMAFIVPEILAIDEVKLRSFLEEKQELKLYEHALDEINRQRPHVLSAEEEALLAQAAEVMQSSSSTFSMLNNADLTFPTIIDENGEEVEVTHGRFIRFLESTDRRVRRDAFKAVYDTYEKYKNTFASTLAGTVKKDNFFARVRRYKSAREAALSSNNIPESVYDNLIETVHEHLPLLHRYVRLRKKVLGLDELHMYDLYTPLVQDVKMEVTYEEAKEYMLKALAPLGEEYISIVKEGLENRWVDVRENKGKRSGAYSSGAYGTHPYILLNWQDNVNNLFTLVHEFGHSVHSYYTRKTQPYPYANYSIFVAEVASTCNEALLNDYLLKTMDEEKKRLYLLNHYLEGFRGTVFRQTMFAEFEHMIHIKAQEGEALTADSLTSLYYELNKKYFGDDIVVDQEIGLEWARIPHFYYNYYVYQYATGFSAATALSKQILEEGEPAVKRYIEFLKAGSSDYPIEVLKKAGVDMTSAEPIRQACQVFAEKLEEMENLLSEGHHHHHH,soluble
2,MGSDKIHHHHHHMTAAAATTAGATGGASRRPADEAIAADARALSEQLKAMRDRLFAPTAMKTLRSFTSGEAAKLIGVSDGYLRQLSLAGEGPQPDTGAGGRRSYSLSDINALRRHLAEQAIAKGNGAKARGYLKWRDAARSEHLQVISVTNFKGGSGKTTSSVHLAQYLALTGHRVLAVDLDPQASLSALFGYQPELDLTGNDTLYGAIRYDAEARPLKDIIRKTYFDGLDLVPGNLELQEFEHTTPQALSARQSGADAGPLFFARVQAALASVADDYDVVVIDCPPQLGYLTLSALCASTSVIVTVHPQMLDVASMNQFLYMTSDLLSVVRDAGGELNFDFLRYLVTRFEPNDGPQAQIVGFMRSLFGDRVLTSAMVKSTAISDAGLTKQTLYEVGRENFTRATYDRAIESLNAVNGEIEALIHAAWGR,not soluble
3,MATSSSAFDDELPMEEGMPELLDDEDVPSTLPSLLEQNLDTAPKGDEFKLVKRKRKSGNAIDVVMEDVSQVDEDATADTADDSTGPKSSKRTKGVKGESRVVPVPKHRYTPLKDNWVNIFTPIVKNLGLQVRFNLKKRQVEIRNPVDREDTTDLQKATDFVRAFILGFEVNDAIALIRLDHLFLETFEVADVKHSLKGDHVSRAIGRIAGKDGRTKLVIENTTKTRIVVANTKIHILGAYQNLKLARNAVCSLILGSNPSKVYGSLRNMASRGAERL,not soluble
4,MGSDKIHHHHHHMRKSRDANPFKAMPNILYPDELMDKAYNRSEKIAGELRTTTRGLSTPKSKIIEDNKIRTTASVISDNLLKIVEKTPSIDNLDPFYREILEIMVGSDEFKKSLAAVQWASEIVKKLGTQYSRKVKKAPSPQATSIVRKEFIGRVSSVLKQIYPNMAFLGVARNKLKNIPTVKNLPSVVIAGYPNVGKSTLLRTLTDAEPEVNSYPFTTKGLNIGYTEEGIQIIDTPGVLDRPIYERNDIELHAVVAINYLSDMILFVIDPTEFCGFTMEEQFNLLQEIRKTFNVPILVALTKMDVDEIEGLDKLEEDLGEYEVLKVSSFKKEGIADLRERLLDILDEQGLMGLLEE,not soluble
5,GAMDSSEMSTICDKTLNPSFCLKFLNTKFASPNLQALAKTTLDSTQARATQTLKKLQSIIDGGVDPRSKLAYRSCVDEYESAIGNLEEAFEHLASGDGMGMNMKVSAALDGADTCLDDVKRLRSVDSSVVNNSKTIKNLCGIALVISNMLPRN,soluble
6,MAKKDEHLRKPEWLKIKLNTNENYTGLKKLMRENNLHTVCEEAKCPNIHECWAVRRTATFMILGSVCTRACRFCAVKTGLPTELDLQEPERVADSVALMNLKHAVITAVARDDQKDGGAGIFAETVRAIRRKSPFTTIEVLPSDMGGNYDNLKTLMDTRPDILNHNIETVRRLTPRVRARATYDRSLEFLRRAKEMQPDIPTKSSIMIGLGETKEEIIEVMDDLLANNVDIMAIGQYLQPTKKHLKVQKYYHPDEFAELKEIAMQKGFSHCEAGPLVRSSYHADEQVNEASKKR,not soluble
7,SVFADQVGVQVIGVNDFHGALDNTGTANMPDGKVANAGTAAQLDAYMDDAQKDFKQTNPNGESIRVQAGDMVGASPANSGLLQDEPTVKNFNAMNVEYGTLGNHEFDEGLAEYNRIVTGKAPAPDSNINNITKSYPHEAAKQEIVVANVIDKVNKQIPYNWKPYAIKNIPVNNKSVNVGFIGIVTKDIPNLVLRKNYEQYEFLDEAETIVKYAKELQAKNVKAIVVLAHVPATSKNDIAEGEAAEMMKKVNQLFPENSVDIVFAGHNHQYTNGLVGKTRIVQALSQGKAYADVRGVLDTDTQDFIETPSAKVIAVAPGKKTGSADIQAIVDQANTIVKQVTEA,not soluble
8,MNDSILEPKHRGNVREIAAIDLGSNSFHMIVARIVNGSIQVLSRLKQKVKLAEGLDENAVLNQEAITRGVNCLALFAERLQGFPMENVNVVGTYTLRRAVNNDEFLRQAAKVFPYPINIISGQTEAKTIYAGVCHTQPEKGRKLVIDIGGGSTEMIIGDDFTPLMAESRHMGCVSFATQFFTDGIISPENFQRARQSAVNKIEDLGLEYRKLGWQSVLGSSGTIKTVAQVIATNLDPNGTITAERLNALIEQTLQAKHFTELNINGLNQDRVDVFVPGLAILSAVFDVFHIQQMRYSDGALREGVIYSLEKNFQVADIRASTALEHHHHHH,not soluble
9,MGSDKIHHHHHHTHSVETPYGSVTFTVYGTPKPKRPAIFTYHDVGLNYKSCFQPLFRFGDMQEIIQNFVRVHVDAPGMEEGAPVFPLGYQYPSLDQLADMIPCILQYLNFSTIIGVGVGAGAYILSRYALNHPDTVEGLVLINIDPNAKGWMDWAAHKLTGLTSSIPDMILGHLFSQEELSGNSELIQKYRGIIQHAPNLENIELYWNSYNNRRDLNFERGGETTLKCPVMLVVGDQAPHEDAVVECNSKLDPTQTSFLKMADSGGQPQLTQPGKLTEAFKYFLQG,soluble
10,MNLYSLLLSLITGCFLLAQGGTSFSSPVETEKSAVTAQSILEKADEIRFPQDSFQVNVAIRTAAPDHAEDLYRYQVLSKGNENSIVMITEPASERGQAILMKGRDLWVFMPSVSQPIRLSLSQRLTGQVANGDIARANFTGDYHPQLLRNESIDDEDYYVLELTGIDRSVTYQKVLLWVNQSNFRPYKAEFYSVSGRLLKTSRYENFDNILGEMRPTRIIMEDALKSGEVSVLDYSDMKLRDLPDKIFTKDYLKRLE,not soluble
11,GAMAATAAEAVASGSGEPREEAGALGPAWDESQLRSYSFPTRPIPRLSQSDPRAEELIENEEPVVLTDTNLVYPALKWDLEYLQENIGNGDFSVYSASTHKFLYYDEKKMANFQNFKPRSNREEMKFHEFVEKLQDIQQRGGEERLYLQQTLNDTVGRKIVMDFLGFNWNWINKQQGKRGWGQLTSNLLLIGMEGNVTPAHYDEQQNFFAQIKGYKRCILFPPDQFECLYPYPVHHPCDRQSQVDFDNPDYERFPNFQNVVGYETVVGPGDVLYIPMYWWHHIESLLNGGITITVNFWYKGAPTPKRIEYPLKAHQKVAIMRNIEKMLGEALGNPQEVGPLLNTMIKGRYN,soluble
12,MAHHHHHHMGKGAVHPNGSNFCRFLKYNIVDKMRTLVNTNLYDTPRWLEWSERAPPMEIYNISLKTKYNNNKYMDLVKFLLKKYPHLRFQDCYVEGNNNIKGYDYFRNDHIITQMATHQLYYMNRGYSKKEALEKTEKLFYDRRMDIEKQQKINMCLAIDEKVKPIYTNGYQYLYEKMADNEKAHLSIILKKLRNMKEKLQKKKKGANENEDKKNGVLT,not soluble
13,MEIQDYTDSEFKHALARNLRSLTRGKKSSKQPIAILLGGQSGAGKTTIHRIKQKEFQGNIVIIDGDSFRSQHPHYLELQQEYGKDSVEYTKDFAGKMVESLVTKLSSLGYNLLIEGTLRTVDVPKKTAQLLKNKGYEVQLALIATKPELSYLSTLIRYEELYIINPNQARATPKEHHDFIVNHLVDNTRKLEELAIFERIQIYQRDRSCVYDSKENTTSAADVLQELFFGEWSQVEKEMLQVGEKRLNELLEK,soluble

# Source: the DeepSol protein solubility set
